Test results as given in patent publication US20260049138A1 (Chugai, published 2026).
Where a chain is given by its changes, count along the chain named. Names and notes keep the numbering of the source.

B1: CE115HA000 A102Y one-arm antibody (antibody, human IgG1, kappa, L234A L235A, N297A, name in Kabat numbering)
heavy: QVQLVESGGGVVQPGRSLRLSCAASGFTFSNAWMHWVRQAPGKGLEWVAQIKAKSNNYATYYAESVKGRFTISRDDSKNSLYLQMNSLKTEDTAVYYCRYVHYGAYYGVDYWGQGTTVTVSSASTKGPSVFPLAPSSKSTSGGTAALGCLVKDYFPEPVTVSWNSGALTSGVHTFPAVLQSSGLYSLSSVVTVPSSSLGTQTYICNVNHKPSNTKVDKKVEPKSCDKTHTCPPCPAPEAAGGPSVFLFPPKPKDTLMISRTPEVTCVVVDVSHEDPEVKFNWYVDGVEVHNAKTKPREEQYASTYRVVSVLTVLHQDWLNGKEYKCKVSNKALPAPIEKTISKAKGQPREPQVYTLPPSRCELTKNQVSLSCAVKGFYPSDIAVEWESNGQPENNYKTTPPVLDSDGSFFLVSKLTVDKSRWQQGNVFSCSVMHEALHNHYTQKSLSLSPDYKDDDDK
chain: EPKSSDKTHTCPPCPAPELLGGPSVFLFPPKPKDTLMISRTPEVTCVVVDVSHEDPEVKFNWYVDGVEVHNAKTKPREEQYNSTYRVVSVLTVLHQDWLNGKEYKCKVSNKALPAPIEKTISKAKGQPREPQVCTLPPSRDELTKNQVSLWCLVKGFYPSDIAVEWESNGQPENNYKTTPPVLDSDGSFFLYSKLTVDKSRWQQGNVFSCSVMHEALHNRYTQKSLSLSP
light: DIVMTQSPLSLPVTPGEPASISCRSSQSLVHSNRNTYLHWYQQKPGQAPRLLIYKVSNRFSGVPDRFSGSGSGTDFTLKISRVEAEDVGVYYCGQGTQVPYTFGQGTKLEIKRTVAAPSVFIFPPSDEQLKSGTASVVCLLNNFYPREAKVQWKVDNALQSGNSQESVTEQDSKDSTYSLSSTLTLSKADYEKHKVYACEVTHQGLSSPVTKSFNRGEC
B2: CE115HA000 D101G one-arm antibody (antibody, human IgG1, kappa, L234A L235A, N297A, name in Kabat numbering)
heavy: B1 heavy with D110G, Y111A
chain: B1 chain
light: B1 light
B3: CE115HA000 D73A one-arm antibody (antibody, human IgG1, kappa, L234A L235A, N297A, name in Kabat numbering)
heavy: B1 heavy with D76A, Y111A
chain: B1 chain
light: B1 light
B4: CE115HA000 D101I one-arm antibody (antibody, human IgG1, kappa, L234A L235A, N297A, name in Kabat numbering)
heavy: B1 heavy with D110I, Y111A
chain: B1 chain
light: B1 light
B5: CE115HA000 D101M one-arm antibody (antibody, human IgG1, kappa, L234A L235A, N297A, name in Kabat numbering)
heavy: B1 heavy with D110M, Y111A
chain: B1 chain
light: B1 light
B6: CE115HA000 E61D one-arm antibody (antibody, human IgG1, kappa, L234A L235A, N297A, name in Kabat numbering)
heavy: B1 heavy with E64D, Y111A
chain: B1 chain
light: B1 light
B7: CE115HA000 E61P one-arm antibody (antibody, human IgG1, kappa, L234A L235A, N297A, name in Kabat numbering)
heavy: B1 heavy with E64P, Y111A
chain: B1 chain
light: B1 light
B8: CE115HA000 D73G one-arm antibody (antibody, human IgG1, kappa, L234A L235A, N297A, name in Kabat numbering)
heavy: B1 heavy with D76G, Y111A
chain: B1 chain
light: B1 light
B9: CE115HA000 D101L one-arm antibody (antibody, human IgG1, kappa, L234A L235A, N297A, name in Kabat numbering)
heavy: B1 heavy with D110L, Y111A
chain: B1 chain
light: B1 light
B10: CE115HA000 D101V one-arm antibody (antibody, human IgG1, kappa, L234A L235A, N297A, name in Kabat numbering)
heavy: B1 heavy with D110V, Y111A
chain: B1 chain
light: B1 light
B11: CE115HA000 D73K one-arm antibody (antibody, human IgG1, kappa, L234A L235A, N297A, name in Kabat numbering)
heavy: B1 heavy with D76K, Y111A
chain: B1 chain
light: B1 light
B12: CE115HA000 E61Q one-arm antibody (antibody, human IgG1, kappa, L234A L235A, N297A, name in Kabat numbering)
heavy: B1 heavy with E64Q, Y111A
chain: B1 chain
light: B1 light
B13: CE115HA000 D101S one-arm antibody (antibody, human IgG1, kappa, L234A L235A, N297A, name in Kabat numbering)
heavy: B1 heavy with D110S, Y111A
chain: B1 chain
light: B1 light
B14: CE115HA000 D101Q one-arm antibody (antibody, human IgG1, kappa, L234A L235A, N297A, name in Kabat numbering)
heavy: B1 heavy with D110Q, Y111A
chain: B1 chain
light: B1 light
B15: CE115HA000 D101N one-arm antibody (antibody, human IgG1, kappa, L234A L235A, N297A, name in Kabat numbering)
heavy: B1 heavy with D110N, Y111A
chain: B1 chain
light: B1 light
B16: CE115HA000 D72E one-arm antibody (antibody, human IgG1, kappa, L234A L235A, N297A, name in Kabat numbering)
heavy: B1 heavy with D75E, Y111A
chain: B1 chain
light: B1 light
B17: CE115HA000 D73R one-arm antibody (antibody, human IgG1, kappa, L234A L235A, N297A, name in Kabat numbering)
heavy: B1 heavy with D76R, Y111A
chain: B1 chain
light: B1 light
B18: CE115HA000 D73T one-arm antibody (antibody, human IgG1, kappa, L234A L235A, N297A, name in Kabat numbering)
heavy: B1 heavy with D76T, Y111A
chain: B1 chain
light: B1 light
B19: CE115HA000 D73E one-arm antibody (antibody, human IgG1, kappa, L234A L235A, N297A, name in Kabat numbering)
heavy: B1 heavy with D76E, Y111A
chain: B1 chain
light: B1 light
B20: CE115HA000 D101Y one-arm antibody (antibody, human IgG1, kappa, L234A L235A, N297A, name in Kabat numbering)
heavy: B1 heavy with D110Y, Y111A
chain: B1 chain
light: B1 light
B21: CE115HA000 D72V one-arm antibody (antibody, human IgG1, kappa, L234A L235A, N297A, name in Kabat numbering)
heavy: B1 heavy with D75V, Y111A
chain: B1 chain
light: B1 light
B22: CE115HA000 D101H one-arm antibody (antibody, human IgG1, kappa, L234A L235A, N297A, name in Kabat numbering)
heavy: B1 heavy with D110H, Y111A
chain: B1 chain
light: B1 light
B23: CE115HA000 D101R one-arm antibody (antibody, human IgG1, kappa, L234A L235A, N297A, name in Kabat numbering)
heavy: B1 heavy with D110R, Y111A
chain: B1 chain
light: B1 light
B24: CE115HA000 D101A one-arm antibody (antibody, human IgG1, kappa, L234A L235A, N297A, name in Kabat numbering)
heavy: B1 heavy with D110A, Y111A
chain: B1 chain
light: B1 light
B25: CE115HA000 D101F one-arm antibody (antibody, human IgG1, kappa, L234A L235A, N297A, name in Kabat numbering)
heavy: B1 heavy with D110F, Y111A
chain: B1 chain
light: B1 light
B26: CE115HA000 D101P one-arm antibody (antibody, human IgG1, kappa, L234A L235A, N297A, name in Kabat numbering)
heavy: B1 heavy with D110P, Y111A
chain: B1 chain
light: B1 light
B27: CE115HA000 D101T one-arm antibody (antibody, human IgG1, kappa, L234A L235A, N297A, name in Kabat numbering)
heavy: B1 heavy with D110T, Y111A
chain: B1 chain
light: B1 light
B28: CE115HA000 D101K one-arm antibody (antibody, human IgG1, kappa, L234A L235A, N297A, name in Kabat numbering)
heavy: B1 heavy with D110K, Y111A
chain: B1 chain
light: B1 light
B29: CE115HA000 D73N one-arm antibody (antibody, human IgG1, kappa, L234A L235A, N297A, name in Kabat numbering)
heavy: B1 heavy with D76N, Y111A
chain: B1 chain
light: B1 light
B30: CE115HA000 E61A one-arm antibody (antibody, human IgG1, kappa, L234A L235A, N297A, name in Kabat numbering)
heavy: B1 heavy with E64A, Y111A
chain: B1 chain
light: B1 light
B31: CE115HA000 D72A one-arm antibody (antibody, human IgG1, kappa, L234A L235A, N297A, name in Kabat numbering)
heavy: B1 heavy with D75A, Y111A
chain: B1 chain
light: B1 light

target: T1, CD3ε homodimer protein (human, UniProt P07766 23-126, limits assumed, sulfo-tag or biotin label in the ECL assays; amine-coupled to the chip in SPR); test: SPR Biacore T200; CD3ε homodimer on CM4 chip;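 note: Single-residue variant antibodies injected as analyte over CD3ε homodimer immobilized by amine coupling, run at 25 °C in HBS-EP+ buffer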
T1 construct: also called human CD3ε homodimer protein; CD3 (CD3ε)
T1 sequence (P07766 23-126 limits assumed): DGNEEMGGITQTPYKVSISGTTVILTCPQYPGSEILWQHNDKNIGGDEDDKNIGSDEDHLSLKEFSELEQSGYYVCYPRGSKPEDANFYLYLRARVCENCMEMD

Binder | ratio of amounts bound Z=Y/X (altered form / CE115HA000)
B1 | 0.91
B2 | 1.38
B3 | 0.83
B4 | 1.18
B5 | 1.2
B6 | 0.91
B7 | 1.07
B8 | 1.07
B9 | 0.62
B10 | 1.33
B11 | 0.87
B12 | 1.07
B13 | 1.16
B14 | 2.35
B15 | 2.02
B16 | 1.05

Binder | ratio of amounts bound Z=Y/X (altered form / CE115HA000)
B17 | 1.04
B18 | 0.63
B19 | 0.73
B20 | 0.49
B21 | 1.43
B22 | 1.21
B23 | 0.24
B24 | 1.26
B25 | 0.75
B26 | 0.2
B27 | 0.79
B28 | 0.63
B29 | 0.94
B30 | 1.09
B31 | 1.41
